Legend:
[1] = target: T1, HA-G3BP2 lacking NTF2 domain (UniProt Q9UN86 1-10+134-482, internal_change); test: EMSA; not stated; BeyoMag Chemiluminescent RNA EMSA Kit per manufacturer; biotin-RNA pull-down from cell lysates; conditions: protein: recombinant; tags: N-terminal HA; label: biotin; predicted loop
T1 sequence: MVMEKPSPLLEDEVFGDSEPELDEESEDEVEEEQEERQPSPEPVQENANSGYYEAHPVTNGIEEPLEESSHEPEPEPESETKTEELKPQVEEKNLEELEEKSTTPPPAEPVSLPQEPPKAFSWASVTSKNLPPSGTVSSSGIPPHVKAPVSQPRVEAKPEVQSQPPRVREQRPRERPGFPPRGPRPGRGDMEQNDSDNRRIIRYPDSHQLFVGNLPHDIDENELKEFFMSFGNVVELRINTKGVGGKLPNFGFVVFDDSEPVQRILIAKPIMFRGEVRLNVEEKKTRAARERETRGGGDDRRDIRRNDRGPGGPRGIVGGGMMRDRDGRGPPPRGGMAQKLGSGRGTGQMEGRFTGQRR

[2] = target: T2, HA-G3BP2 full length (UniProt Q9UN86 1-482); test: as above; conditions: protein: recombinant; tags: N-terminal HA; chain copies: 2; label: biotin; predicted loop
T2 sequence: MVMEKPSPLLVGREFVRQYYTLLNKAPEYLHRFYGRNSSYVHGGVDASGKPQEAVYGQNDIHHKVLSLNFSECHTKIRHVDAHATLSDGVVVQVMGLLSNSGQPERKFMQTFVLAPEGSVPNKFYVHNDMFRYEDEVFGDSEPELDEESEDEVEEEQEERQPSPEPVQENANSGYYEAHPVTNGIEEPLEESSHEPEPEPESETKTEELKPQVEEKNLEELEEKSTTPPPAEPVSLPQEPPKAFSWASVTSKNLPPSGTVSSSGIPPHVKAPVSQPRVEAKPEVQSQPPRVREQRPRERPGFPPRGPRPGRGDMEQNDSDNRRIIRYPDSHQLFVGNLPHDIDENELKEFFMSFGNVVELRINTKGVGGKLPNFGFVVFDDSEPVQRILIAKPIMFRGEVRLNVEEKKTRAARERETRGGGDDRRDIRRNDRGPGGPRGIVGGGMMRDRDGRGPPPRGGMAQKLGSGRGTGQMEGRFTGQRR

UUGACUGCAGAUCAAGAGGUCCCCGGU (ssRNA) [tRF-27 (tRF-27-ZDXPHO53KSN)]
binding result [1]: no binding | binding result [2]: binds

Reference: publication PMC11302882, “tRF-27 competitively Binds to G3BPs and Activates MTORC1 to Enhance HER2 Positive Breast Cancer Trastuzumab Tolerance”
